Drawing on a protein production outcome set (Wang et al. 2014), this text covers protein production for 17 sequences.

This data set is described as follows: label from the status in PepcDB records.

Take “MELKMNDINQHSFLKLGSVRHIQSEQEALEIAKEMANQLNQFARNPSYNKTVPYDQARLISEAGLTAIIVPKQFGGLGASISTLVNVVKIISSADGGVGQLLQIHFTMFRGILTGYDDEIRDQLLADVLSGKRLGNALAEVGGKDKFQHKTRVERNSEGKLILNGSKFYSTGSLLAEWISLFAGSDDGPVSILIHRDTQGVELLNDWDAMGQNNSVSGTVNFKDVVVDERYVAKRNTGGLGTVLRTGLTWPQILHAAMDTGIAKGALQGGIDYLQHHARPWVESGVDSPTHESHIIKQIGEFAVLVRSAEALLDRSAQIFEQHLANVEDEDLQTELILSVAATRSQSDHASLKISSEIFGLLGASSTLSKWNLDRFWRNARTHTTHDPIRWRLYHVGNYYLNNIPPGEYNSVLLKKQAENVTKFSK”: the protein production result is recorded as “failed”. For “MELLKHLSQRQYIDGEWVESANKNTRDIINPYNQEVIFTVSEGTKEDAERAILAARRAFESGEWSQETAETRGKKVRAIADKIKEHREALARLETLDTGKTLEESYADMDDIHNVFMYFAGLADKDGGEMIDSPIPDTESKIVKEPVGVVTQITPWNYPLLQASWKIAPALATGCSLVMKPSEITPLTTIRVFELMEEVGFPKGTINLILGAGSEVGDVMSGHKEVDLVSFTGGIETGKHIMKNAANNVTNIALELGGKNPNIIFDDADFELAVDQALNGGYFHAGQVCSAGSRILVQNSIKDKFEQALIDRVKKIKLGNGFDADTEMGPVISTEHRNKIESYMDVAKAEGATIAVGGKRPDRDDLKDGLFFEPTVITNCDTSMRIVQEEVFGPVVTVEGFETEQEAIQLANDSIYGLAGAVFSKDIGKAQRVANKLKLGTVWINDFHPYFAQAPWGGYKQSGIGRELGKEGLEEYLVSKHILTNTNPQLVNWFSK” the value was “not failed”; for “MELLKIDCLGKSLRLEGSLAGWQLLFWDNNLVSQKAASVDNGGLKVHQFELTQHHSQLASDSGEAQVLENKILVRLETDVVWQPFRFDYRLLVDEEVIAQGTRTEKDIERQMPEIPVTAPQKFSFVGLASLGFKLLKSAKVIKVVLAGASVAAYSWLFSFQFALALIACLVFHEYGHIRAMKYFGMKTKGIYLIPFMGGLALSDEKINTRWQDVVISIMGPTFGLLMSVGSLIAYHFTDNIFFAGLAAFNALLNLFNLLPILPLDGGHILKSISFSMNSIMGLIACVIGAAFGVYISYTLGLALLGFLLLIGSLEIVFEWRSRHQSHLLPLDRYGQIFSTIWYLATVAALVGIIWHLAGTGDDMLSLPLQILRS”, “failed”; for “MELQLAIDLLNKEDAAELANKVKDYVDIVEIGTPIIYNEGLPAVKHMADNISNVKVLADMKIMDAADYEVSQAIKFGADVITILGVAEDASIKAAIEEAHKNNKQLLVDMIAVQDLEKRAKELDEMGADYIAVHTGYDLQAEGQSPLESLRTVKSVIKNSKVAVAGGIKPDTIKDIVAESPDLVIVGGGIANADDPVEAAKQCRAAIEGK”, “failed”. For “MELTLALVIFVICYLLIMAETFNRAVVACLGGVLMLFVGIYPLDAAFLQYIDWHTITLLLSMMILVSITSQSGFFEYMAIRLAQKVDGRPIPLLIVVAGITAIGSAFLNNVTMVLLIVPIVLTLTNLLKLNAVPFLLTLVMASNIGGTATLIGDPPNLMIGQAVAHLSFNDFLLHLGPIVAVIFFVVLIGLILYYRRQLSVTAEDRSRLRGVDPTSYLKNRPLLIKSMTVLTLTTIGFTIQPFLPVELTSIAMAGALLLMLITQNEQDMEGVFRSVEWVTLFFFIGLFMLVGGIKEVGIIDEIAKAIIYYTEGDIPKTSLFILWGSGILSGFVDNIPFVAAMIPVILEFQEYGVGELDPLWWSLALGACLGGNATVIGATANVIVAGLAVQAKQSFSYLEFLKVGAPVALVSFLLCTVYLYIRYLIYF” the value was “failed”. For “MELVAGSYEQVLFGFTVQRGPAKSGHQETWTPVADFTHHSHTASLSVLASNSRYVVSGSKDETIHIYDMKRKVEHGALVHHAGTVTCLKFHGNQHLISGAEDGHICIWDVKRWKCLKTFKAHRGHVTFLSIHPSGKLALSVGTDKTLRTWNLIEGRSAFIKNIKENAHIVEWSPSGGKYIVVVQNKVDVYRLGTASVSGTITNGKRISSVTFLSDSVLAVAGDEEVVRIFDCDSLECLCEFRAHENRVKDMVSFEVPDHHVLVTASNDGFIKMWTLPQDKKVPPSLLCEAKTGARLTCLTVWLDRAANGMASLPPAAEPCPDQPKTIEKESGDTVQEETSEPNSEKSDVSGDSKQPTKGNSPVTAKKRKMATMSEKKRKKKMSLTWQIPDFSSLSECPFDGILHVPVRRKYLLP” the value was “failed”; for “MELVHGISTHFIQSKKFKTNKITVRFTAPLSLDTIAGHMLSASMLETANQMYPTSQDLRRHLASLYGTDMSTNCFRRGQSHIIELTFTYVRDEFLSRKNVLTSQILELVKETLFSPVVVDNGFDPALFEIEKKQ”, “failed”. As to “MENFAEIVGIGPAGVISITGGGGKTSLMFHLARQLAYSGKRVLTTTTTKILAPSVEESRTLLISQDPQVILRHAKAHPGPGVHVSAAAGHIPHTEKLQGFPREAIRTFEDSGEFDWVVVEADGAARKPLKAPAAHEPVIPGNSTIVVALAGLEVLGRPLGEEMVFRSELAGELMQIPQGETITVPALARLLAHPSGGFKGAPPQARRFIFLNKADTPELQEKGGEVALQLKEIAPSVAEAVIVGQLRQEITLHRVYPRGELEHHHHHH”, the protein production entry was “not failed”. For “MENIKNPKNADDCSDSISKNSHQGVDDSLNQSRSYVCSFCIRGFSNAQALGGHMNIHRRDRAKLRQKLMEDNKDDVVAESDASEVVSLDLNEQQQQQGEALTCDDHDQYVDNDISPKQKLEFWVQESKLDTNDHGKVTEASIDGSSSSHHRDIEVLDLELRLGQSVVKKKTT” the value was “failed”. For “MENKRNVCSLGESSIKRHKSDLSFSSKERKDKVGERISALQQIVSPYGKFPCSFVQVLSAPYLQTVPDATQEELEQYSLRNRGLCLVPMENTVGVAQSNGADIWAPVKTPLSPAFSVTSQSPFR” the value was “failed”.

As for “MENQTPSQALISKGWKYFIIVGVIVALAGLGATSLPVMAGVTISTIIGTLLLITGLVQVYHTFRIHSWKEKLWYVLSALFYIVGALFILFKPLEGLMTITTIMIVIMIFNGLTRMIFGFTNRSLPGCGMVILSGLLSVVIGGYFFSLFDNPEFSLSLLGTFVGVSLIFEGMSFLFIGLRLRNASKA”, the protein production result is “failed”.

For the sequence “MENRAHAFLAGLFTIGLAIFIALAVVWFNRDQTVRVPYEVVTRSTVNGLSPQAAVKYRGLDVGKVDSIRFDDRVPGQIIVRVLVDKDAPITTTTYGRLAYQGVTGLAYVQLDDRGYDGGKRAANPTRLETSDRRPARIAMEAGFLDELDKRGDQMLARIDQTLSSLSALFDDEHRQALMAAMQSFQGTMDSYNALARQAEPTMRRLPQIADNLDATLSATRRLSQSLSDPKGPLMGTLASAGNDLSSASQSMQAATNVLANETLPQLNGFAREARQAVRSFDHAVTDFNTRPQSVLFGPAPATPGPGETGFAAPQVSAAPSVAVPATARP”, the protein production result is listed as “failed”. Turning to “MENWVIQIIERLGYLGIAFLMFLDNVFPPIPSEIIMPSAGYTASRGQLQIIGVIVAGSLGSILAAAILYALGRQISHAALFRWTDRYGKYLLIQTKDLQIALEWFEKYGHRIVFFGRMIPAVRSLISIPAGMSRMPFWKFMLYSSLGTVIWTTFLAGVGFYFGENQAFMFSIMHRVGYLILAITLMVSVWWIYHKFYKKR”, the protein production result is recorded as “failed”. For “MEPAILIITLICGMLVSRIGLPPLIGYLVAGFVLFVMGIEKESMPLLQELANLGVTLLLFAIGLKLDIRSLFKAEVWAGSSVHLILSILVFVPILKILGLLGLSQLTSLGIEQLTLLAFALSFSSTVFAVKVLEDKGDMQSLYGRVAIGILIMQDIFAVLFLTISKGDVPSVWAFALLLLPLAKPLIYKAFDRVGHGELLVLFGLVMALVVGAWLFESLGLKPDLGALVIGILLAGHKKASELAKSLFYFKELFLVAFFLTIGLNGLPTVSDIVLAALLVLLVPLKILLFVYILTRFKLRSRTSMLGSFNLGNFSEFGLIVAAVATSKGWLPSHWLVIIAVALSFSFLLAAPLNATVGSIYQRFQLRLVRLEKRPLHPEDRPIAIGNPRFLILGMGRIGSGAYDELRARFDGEILGIEHKQDLVDLHRAKGRNVVQGDASDTDFWEKLDKAPNLELVLLAMPHHAGNLFAVEQLNKLNYQGKISAIVQYGEDAASLRNSGVHSVYNLYEAAGAGFVDHVVHELLPDSETKAGTEAQEGTQKQTSSLV” the value was “failed”. In the case of “MEPEEERIRYSQRLRGTMRRRYEDDGISDDEIEGKRTFDLEEKLHTNKYNANFVTFMEGKDFNVEYIQRGGLRDPLIFKNSDGLGIKMPDPDFTVNDVKMCVGSRRMVDVMDVNTQKGIEMTMAQWTRYYETPEEEREKLYNVISLEFSHTRLENMVQRPSTVDFIDWVDNMWPRHLKESQTESTNAILEMQYPKVQKYCLMSVRGCYTDFHVDFGGTSVWYHIHQGGKVFWLIPPTAHNLELYENWLLSGKQGDIFLGDRVSDCQRIELKQGYTFVIPSGWIHAVYTPTDTLVFGGNFLHSFNIPMQLKIYNIEDRTRVPNKFRYPFYYEMCWYVLERYVYCITNRSHLTKEFQKESLSMDLELNGLESGNGDEEAVDREPRRLSSRRSVLTSPVANGVNLDYDGLGKTCRSLPSLKKTLAGDSSSDCSRGSHNGQVWDPQCAPRKDRQVHLTHFELEGLRCLVDKLESLPLHKKCVPTGIEDEDALIADVKILLEELANSDPKLALTGVPIVQWPKRDKLKFPTRPKVRVPTIPITKPHTMKPAPRLTPVRPAAASPIVSGARRRRVRCRKCKACVQGECGVCHYCRDMKKFGGPGRMKQSCVLRQCLAPRLPHSVTCSLCGEVDQNEETQDFEKKLMECCICNEIVHPGCLQMDGEGLLNEELPNCWECPKCYQEDSSEKAQKRKMEESDEEAVQAKVLRPLRSCDEPLTPPPHSPTSMLQLIHDPVSPRGMVTRSSPGAGPSDHHSASRDERFKRRQLLRLQATERTMVREKENNPSGKKELSEVEKAKIRGSYLTVTLQRPTKELHGTSIVPKLQAITASSANLRHSPRVLVQHCPARTPQRGDEEGLGGEEEEEEEEEEEDDSAEEGGAARLNGRGSWAQDGDESWMQREVWMSVFRYLSRRELCECMRVCKTWYKWCCDKRLWTKIDLSRCKAIVPQALSGIIKRQPVSLDLSWTNISKKQLTWLVNRLPGLKDLLLAGCSWSAVSALSTSSCPLLRTLDLRWAVGIKDPQIRDLLTPPADKPGQDNRSKLRNMTDFRLAGLDITDATLRLIIRHMPLLSRLDLSHCSHLTDQSSNLLTAVGSSTRYSLTELNMAGCNKLTDQTLIYLRRIANVTLIDLRGCKQITRKACEHFISDLSINSLYCLSDEKLIQKIS”, the protein production entry is “failed”.

Turning to “MEPGPEDYLVCAIAKPADKRLVVEKLLGKGARFFTLIHPSVIMGENVVIGQGAVICPSTVLSVDLRIGAFVTLNIGCLVGHDADIGDFSTLSGHCDITGGVVLEEEVFMGTHASVLPNVKVGKQAVVGAGSVAIRNVAAGITVFGVPAKRISGLEHHHHHH”, the protein production entry is “failed”. Regarding “MEPIVFNGYHTLITATLVLLVGRFFVNKIKVLQDFNIPEAVAGGLIAAVAILCLYNWFGVSLQFEQSLQNAFMLAFFSSVGLSADFSRLKQGGMPLVIFLVVVSLYIIIQNVIGVGLASALGLDPMIGLLTGSITLTGGHGTGAAWAKIFSEEYNITGVMEMAMASATFGLVAGGLIGGPIARRLINKMKKDRSQQITKRVDTSAEQYDGSTFEDHDSIRYITASSTIETMALFAACLGFSSIIVNTFPDISLPQFVWALGFGVILRNVLTKVFKFDMFDRAIDVFGNASLSMFLAMALMSIKLWELTGLAGPMLIILVVQTLVMILYGYFVTYRVMGKDYDAAILTAGHCGFGLGATPTAVANMQSVTEKFGSSHKAFLIVPLVGAFFVDILNLAVITSFVDFLR”, the protein production entry is reported as “failed”.
